This is an account of results in the domain aggregation screens of Martell et al. (2025).
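Also: 20 min heating vs room temperature control held 20 min.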

This data set can be described thus: soluble fraction after stress (log2 fold change); higher = more stays soluble; pooled small domains, quantitative proteomics. The following applies: stress: 75 degC.
For the sequence “HMKLSKKVTDFLAQMPSKSISPKMLANNLGLADDAGDYKHLLKTIAQLEESKAIEVTAAGNIALPQPE”, the “soluble fraction (log2)” value was -0.162.
For the sequence “HMKLSLKTQVKEYLLSYIRDKKLQPGDRLLTQRELAEMLHTSQKVAQMALNSLEEEGIIIRRLGSGSFLAR”, the “soluble fraction (log2)” value was -1.31.
In the case of “HMKLTKPQEVFIQELLKGSSQYEAYLKAYPSKKTWKRNSIDTEASKLFKNAKIKQRYEELLYNIREE”, the “soluble fraction (log2)” value was -0.695.
Regarding “HMKLTNNDFIRLKTFMYNNYGINLENKKTLIETRLAIVVKRLGFNDFKSYIDNLMRDKTGEQASIIVGKLT”, the “soluble fraction (log2)” value is -2.83.
For “HMKLTPKQQQIYDFISSFADEHGYPPSVREIAQAVNLKSPATVHFHLKGLREAGYISQAEGKTRAITI”, the “soluble fraction (log2)” value is -0.158.
Turning to “HMKMDGESQRLLSLIKEQGGSLPIGDKSSPEAIYRLTQMSKKTFKMALGSLYKAKQVVLSPTEVRL”, the “soluble fraction (log2)” value is -1.45.
With “HMKMNFNEEEQKLLSEANVLVETNKTYTDDEVKGFSNKIVEHIMTFSKTDIPKVKSKFDPILFKI”, the “soluble fraction (log2)” value is -0.359.
Regarding “HMKMTIEDLITQAKESNAAENYYEAFQLYSKAIDVLPNDPDLYSARGVVLFHLDRKEDSLIDMNKSVD”, the “soluble fraction (log2)” value is -0.17.
With “HMKMVEIDYGKFLTMLDTGKVKSVEIENNRIAINPSSSKDKNIYITGRMDDPELVDRLKNAKVEFTKVIP”, the “soluble fraction (log2)” value was -0.0753.
As for “HMKNAYDLKMLVKDNDGNIERNMKYYFFLANGSKVEGITDDNGYTKTITTIQPEKADLHLINDELI”, the “soluble fraction (log2)” value was -1.61.
In the case of “HMKNDIQLKHDVEEELQWDPAVDASRFAVQAKDGVVTLSGGVDTFADKHAAEEAIRRVAGVTALVIHVDV” it was -0.27; in that of “HMKNEFRVYPNPANKEIVTFNQTQDIEVYDTLGKLVLKAKNTNTLDTKSFHSGIYFIKTGSGLTRKLVV”, -1.09; in that of “HMKNEQESIAQKLYEAALKNDFVTIQEIQSGGYRLRNDDLTHMRESGVQSNTLIAIQKIFGL”, 0.404.
Next, “HMKNEQIFIVRPDAEGTRLDQWLAAQMASSEEAPSRMQIQRWIKAGLVEGQGTLNPARRIEAGESYTVKPG”: 0.0684; “HMKNEYAMVIQVNGKLRGNMLVSADLEQKDIERMALDNEDIKRFISHENDVKKMIFVPKKLINIVT”: -1.21; “HMKNIFDWLKQINYHKQPADSFTEKDWELFNSYMVHRFMSMNREFIEVVNYVQEMPPQEKILIYNIYREF”: -2.16.
For the sequence “HMKNIINFIVKEDDNNKRVDMILANHDKSLSRTRVKNLILDSKLKINERIVQDPSIKTKLNDKIELEIVEP”, the “soluble fraction (log2)” value came to 0.631.
For “HMKNIINLVIDGELHGKRIDAVIAQKNDSLSRTRIKNLVINGNLSINDEIVSDPSKKIYKDDKVSLTIPLP”, the “soluble fraction (log2)” value was -0.322.
“HMKNIMRQWIELEPDQGKIRSKLYSLDRVVEETTNEVGMIKLLLEIDEKELNNLVSHNDIRLV”: the “soluble fraction (log2)” value was -0.425.
On to “HMKNIRKQAIEAIDRIKNGNPIVISKNAKLIFKNIAKEANVSPTELHREFRDVMLYVNSLKAP”, for which the “soluble fraction (log2)” value was -0.346.
Regarding “HMKNKVTVPKVEGMDKEEAIQALNEVGLGYKAVMQSSDSVAEGKVISQGTAAGKKVDKNTQIIITVSGG”, the “soluble fraction (log2)” value amounted to 0.237.
“HMKNLADNIVALRKKHGLSQEQFAEKIDVTRQAVSNWERRIATPDVETIDLIAKLFDTDLTALVNG”: the “soluble fraction (log2)” value was -0.342.
Turning to “HMKNLKLVSNTDGIRIDSWLADEFEDYSRSYLRKLIDQDLVYVNGNKIKANYKLKKGDEISISIPEPE”, the “soluble fraction (log2)” value is -0.151.
Next, “HMKNLTERQQQIIALISGNPLITRAEIASAIGFSVKTIERELSILSEIVSYVGSKKGGHWEIQT”: -2.66; “HMKNLTERQQRIIALISENPQTTRAEIAGAIGVATKTIERELTTLSNIVYYVGPKKGGHWEIIK”: -1.51.
For the sequence “HMKNLTEVEYSEFLESIAQDRVSKVQVDGLIIRGEMNDGQRFETVQPQVTDKALIDDMVNHRVDFSGARP”, the “soluble fraction (log2)” value came to 0.295.
As to “HMKNMSLGERIKEQRKSSGLSQEKVAEFVGVSRQAVTKWETGQSAPSTENLFKLAEIFGTTVDILLA”, the “soluble fraction (log2)” value was -0.198.
In the case of “HMKNNAIAPDQVVSLLKNEVNYNDDGRIEILDNNKNIRYNSKGELLTIEERVNEFLDANPHFRK” it was 0.0664; in that of “HMKNSMANVQARREKILSAVDQSEPVAVEGLAQRFNVSITTLRRDLKALSDMGQVKWHHGLVERT”, -0.229.
As to “HMKNVADEVFEKMLNMIIEGDWKKGEMIPSENELREAFSVSRSTVRQAVQRLSALGIVRSRQGKGTYVEQV”, the “soluble fraction (log2)” value was -1.7.
For the sequence “HMKNYYELLGVAREASQDQIKKAYRKLARKYHPDVSKEADAETRMQELNVAYDTLSDAEKKREYDFQLDHP”, the “soluble fraction (log2)” value is 0.0883.
Regarding “HMKPDDDMLLKILTKLFIQKQFVINSKDIFQYILKNTNRTYENIINIVNRLDTLSIEKKRQLTIPLIKEI”, the “soluble fraction (log2)” value was -0.585.
Take “HMKPEQIELTFSGTTAMRLDKFLAENQPGLSRAKLQAIISSGSVEVNGKVITKQAFKLDPGDLVKALIPE”: the “soluble fraction (log2)” value is -1.23.
With “HMKPGWEDIFRMNQIQLEDAVRTVNRDDTLAPTKKAYLIQNLLASRWIVGNQLQAQKDKTTE”, the “soluble fraction (log2)” value was -0.126.
Turning to “HMKPGYVIQVNGTVTKIQSGLVYVKTPAAQYTLMRKYAPADAAVGDRVSLWINEEGMVIDVHGK”, the “soluble fraction (log2)” value is -2.03.
As to “HMKPKDILLPNFTNLTLDEAKAKAEEVKLNLNVSEEKYDVQIEEGKIISQDPKYQPNYTVKEGSTVNVVVS”, the “soluble fraction (log2)” value is not below 1.04.
Next, “HMKPLIIPLELMQRLSSDKQLEAGFNRFSKSKQHEFAAYIAAAKRVETKVKRLEKIIPLILSGEGLNDR”: -2.35.
Regarding “HMKPLRPVHLEIQTHRLSPVGILRSSFRQAGKVMHSNHGRITGLNLEQLKLIQAAFAGEALPK”, the “soluble fraction (log2)” value was -0.158.
Next, “HMKPQIRRHEKITALVREHGFMSVEQLARELEVTPQTIRRDIGILSAENVLRRYHGGAALGD”: -0.941; “HMKPSNLTSDERTQLLAQLKTAMGSDQYNQLRRQVGEEKLLEYVLDNVPGIQEEILGNRAVQENIDLH”: 0.0107; “HMKPSTVSVPDVSGDKLSTAKMIIRKSGLKVGDVQKIEDDNVGAGKVVRTNPSAGSKKREGSSVDIFVASA”: -0.0331.
As for “HMKPTVKGHFTRKESNVGGYADVRGWGVAGTPSMMANQSKDTRRFSTLIVPGRSVNVHPSPTKEAIIWWQS”, the “soluble fraction (log2)” value was -0.224.
Turning to “HMKPTVKKLLAALPELRSGQPLHLSVATRKLRDAGLLGKNASSPTLFRNYVAQFELIPENQPNAVRYR”, the “soluble fraction (log2)” value is -0.786.
Regarding “HMKPVSEMDNMEWVREQYFQNMIYEIGEWVKDKKTGIVGEIVKRGTNYVTIVQEDFSLHKIWLEDLETTE”, the “soluble fraction (log2)” value is -0.428.
On to “HMKQDYYSILGVMRDASQEEIKRAYLDAAQRLHPDRNTSAGDTEMFLDVQQAYEVLSNPKRRAQYDATLP”, for which the “soluble fraction (log2)” value was 0.383.
On to “HMKQEFEMGLPNGVGEQMLAHAIEKFDVKLEHSEFGPKLIGTYEELEKAKVFLYEAIEARLNQLE”, for which the “soluble fraction (log2)” value was determined as 0.279.
In the case of “HMKQISNTDELETMVKKIIDDNEEQVNKYRGGNEKLFGWFVGQAMKNTGGTANPKVVNEILSKLLK” it was -0.0646; in that of “HMKQLLHLVIGGELKDVRGIEFEDLSKIDFVGAFPSYKAAYDAWKNAAQRTVDNAEMRYFILHAHR”, -1.92; in that of “HMKQLRVLGIVKAGSILKNSDGSIEFVIEDSGKSLLVKYKGVIPDIFKDGVEAVVEGDLRGSVFNADKLF”, -1.14.
Turning to “HMKQMNETQQKAFEIYLDSATFETDYKPISEEQLAAKLDALGLKGSSSSINRWKKDFNWAQALQNKVTLAM”, the “soluble fraction (log2)” value is -0.166.
